{"source": "patent US20260216299A1", "about": "“Use of Cytoglobin in Preparation of Drug for Preventing and/or Treating Diabetes” (priority 2022, published 2026)", "molecules": {"B1": {"name": "rhCygb: recombinant human cytoglobin; hexacoordinate heme globin, 21.4 kDa, 190 amino acids, injected as PBS solution (protein, UniProt Q8WWM9 1-190, looked up)", "Cytoglobin": "MEKVPGEMEIERRERSEELSEAERKAVQAMWARLYANCEDVGVAILVRFFVNFPSAKQYFSQFKHMEDPLEMERSPQLRKHACRVMGALNTVVENLHDPDKVSSVLALVGKAHALKHKVEPVYFKILSGVILEVVAEEFASDFPPETQRAWAKLRGLIYSHVTAAYKEVGWVQQVPNATTPPATLPSSGP"}}, "assay_type_in_all_cases": "in vivo, C57BL/6J mice", "key": {"[1]": {"system": "Insulin and Glucagon expression in pancreatic islets", "assay": "Glucagon/Insulin immunohistochemistry of pancreatic islets (average optical density)", "protocol": "(§1) Pancreatic tissues were sectioned at 4 μm and baked at 60° C. for 2 h until paraffin melted. Sections underwent hematoxylin-eosin (H&E) staining.\n(§2) Sections were immersed in methanol containing 3% hydrogen peroxide (endogenous peroxidase blocker) for 15 min. After PBS (10 mM, pH=7.0) rinsing, sections were incubated at 25° C. for 1 h with antibody cocktails (rabbit anti-glucagon monoclonal antibody: anti-somatostatin antibody=1:1), or separately with: anti-mouse insulin antigen monoclonal antibody, anti-proliferating cell nuclear antigen (PCNA) monoclonal antibody, rabbit anti-Ki67 monoclonal antibody. Alternatively, sections were incubated with guinea pig anti-PDX-1 monoclonal antibody at 4° C. for 14 h. Nuclei were counterstained blue with hematoxylin and sections were subjected to morphometric analysis.\nGlucagon/Insulin Analysis Method: The immunohistochemistry results were analyzed for average optical density analysis using Image-Pro Plus 6.0 (Media Cybernetics, Inc., Rockville, MD, USA). For each section with a group, at least 3 fields of view at 200× magnification were captured. […] The integrated optical density (IOD) value of positive staining on the pancreatic islet and the pixel area (AREA) of the pancreatic islet were analyzed for each photo. The average optical density value (AO value) was calculated as AO=IOD/AREA. […]"}, "PCNA": {"system": "PCNA", "assay": "PCNA immunohistochemistry of pancreatic tissue", "settings": "pancreas; 4-week treatment; FIG. 15 to 16D", "protocol": "as §1, §2\nPCNA Analysis method: The immunohistochemistry results were analyzed for percentage using Image-Pro Plus 6.0 (Media Cybernetics, Rockville, MD, USA), at least 3 random field of view at 200× per section within a group were captured. […] Each photo was analyzed to obtain the number of positive cells and the total number of cells in each photo. Then, the percentage of positive cells was calculated, as: Positive cell percentage (%)=(Positive nuclei count/Total nuclei count)*100 was calculated as the positive rate."}, "[2]": {"system": "renal tissue of C57BL/6J diabetic model mice", "assay": "H&E staining of renal tissue", "settings": "FIG. 14", "protocol": "(§3) The AUC for blood glucose changes within two hours post-glucose gavage was shown in FIG. 5, confirming impaired glucose tolerance in the DM group. • 2) Successfully modeled mice were divided into three groups based on no statistical difference in blood glucose within groups and statistical difference in blood glucose between groups: wherein the three groups are rhCygb treatment group (5 mg/kg subcutaneous injection), exendin-4 treatment group (50 μg/kg subcutaneous injection), and placebo group (0.1 mL PBS subcutaneous injection) (grouping without re-caging, mice remained in original cages), respectively.\nThe mice of placebo group, rhCygb treatment group, and EX-4 treatment group received daily subcutaneous injections of PBS, rhCygb, or EX-4, respectively for 2 months (frequency adjusted based on survival status of mice). […] Mice were immediately sacrificed by cervical dislocation after blood collection and dissected for tissue collection. Liver tissue, pancreas, kidneys, heart, lungs, stomach, and spleen were sequentially collected for biochemical and pathological examination as detailed below. 3. Measurement of four blood lipid items • 1) Total Cholesterol (T-CHO) Measurement: prepared serum was diluted tenfold with physiological saline at a 1:9 ratio. […] Absorbance at 510 nm was measured using a microplate reader. Cholesterol content was calculated according to the formula: […]"}, "[3]": {"system": "pancreatic tissue of C57BL/6J diabetic model mice", "assay": "H&E staining of pancreatic tissue sections", "protocol": "as §3\n(§4) The mice of placebo group, rhCygb treatment group, and EX-4 treatment group received daily subcutaneous injections of PBS, rhCygb, or EX-4, respectively for 2 months (frequency adjusted based on survival status of mice). […] Absorbance at 510 nm was measured using a microplate reader. Cholesterol content was calculated according to the formula: […]\nThe severity of lesions observed in the HE-stained pathological sections of each mouse was graded. This ordinal data was analyzed using the K Independent Samples non-parametric test in SPSS software, and the result indicated a statistically significant difference between groups. As SPSS lacks pairwise comparison for multiple independent samples, all data were ranked and converted into quantitative data, then subjected to one-way ANOVA."}, "[4]": {"system": "C57BL/6J diabetic model mice", "assay": "Four blood lipid items in serum of treated mice (T-CHO, TG, HDL-C, LDL-C kits)", "settings": "after 28 d of treatment", "protocol": "as §3\nThe mice of placebo group, rhCygb treatment group, and EX-4 treatment group received daily subcutaneous injections of PBS, rhCygb, or EX-4, respectively for 2 months (frequency adjusted based on survival status of mice). […] Mice were immediately sacrificed by cervical dislocation after blood collection and dissected for tissue collection. Liver tissue, pancreas, kidneys, heart, lungs, stomach, and spleen were sequentially collected for biochemical and pathological examination as detailed below. 3. Measurement of four blood lipid items • 1) Total Cholesterol (T-CHO) Measurement: prepared serum was diluted tenfold with physiological saline at a 1:9 ratio. Into each well of a 96-well plate, 2.5 μL of deionized water, 2.5 μL of standard, and 2.5 μL of sample were sequentially added. Then, 250 μL of working solution was added to each well, thoroughly mixed, and incubated at 37° C. for 10 min in an electric thermostatic incubator. Absorbance at 510 nm was measured using a microplate reader. Cholesterol content was calculated according to the formula: […]\nSerum from each treated C57BL/6J mouse was assayed using a total cholesterol assay kit. […] Furthermore, no significant difference was observed between the treated groups (rhCygb treatment group and exendin-4 treatment group) and the blank control group, indicating effective therapeutic outcomes. • 2) Triglyceride (TG) Measurement: prepared serum was diluted tenfold with physiological saline at a 1:9 ratio. […] Absorbance at 510 nm was measured using a microplate reader. Triglyceride content was calculated according to the formula: […]\nSerum from each treated C57BL/6J mouse was assayed using a triglyceride assay kit. […] Absorbance at 546 nm (A1) was measured using a microplate reader. […] Absorbance at 546 nm (A2) was measured again. HDL-C content was calculated according to the formula: […]\nSerum from each treated C57BL/6J mouse was assayed using an HDL-C assay kit. […] Absorbance at 546 nm (A1) was measured using a microplate reader. […] Absorbance at 546 nm (A2) was measured again. LDL-C content was calculated according to the formula: […]"}, "[5]": {"system": "C57BL/6J diabetic model mice", "assay": "Weekly fasting blood glucose in high-fat diet diabetic model mice under treatment", "settings": "daily subcutaneous injection, rhCygb 5 mg/kg; weekly monitoring; vs PBS group; FIG. 7", "source_text": "50 SPF-grade male C57BL/6J mice were purchased from Guangzhou Sebiona Biotech Co., Ltd. Their health status and whether they were all male were checked. All male mice were divided into groups of 5 per cage, totaling ten cages, with cage numbering. Cages 1 to 8 were designated as the high-fat diet modeling group and fed a high-fat diet with ad libitum feeding and drinking. Cages 9 and 10 were designated as the normal diet modeling group and fed standard chow with ad libitum feeding and drinking. All mice were marked with tail lines for identification. During modeling, body weight and fasting blood glucose (FBG) levels of all mice were measured weekly, and tail markings were reinforced. […] At 9:00 AM every Friday, body weight was measured, the tail tip was clipped, and approximately 1-2 μL of (a drop of) blood was applied to a Roche Accu-Chek® Active test strip on a glucometer to determine FBG. […]\nas §4"}}, "data": [{"molecule": "B1", "values": [{"measurement": "expression level of glucagon (average optical density)", "setting": "[1]; FIG. 17, 19", "result": "statistically significant differences compared to both the PBS group and the NC group"}, {"measurement": "expression level of insulin (average optical density)", "setting": "[1]; FIG. 18, 20", "result": "statistically significant differences compared to both the PBS group and the NC group"}, {"measurement": "PCNA-positive cell rate", "setting": "PCNA", "result": "significantly enhanced PCNA staining intensity"}, {"measurement": "renal steatosis and inflammatory cell infiltration (H&E)", "setting": "[2]", "result": "near-normal renal morphology without significant inflammatory cells"}, {"measurement": "severity of lesions in HE-stained pancreatic sections (graded, ranked, one-way ANOVA)", "setting": "[3]; FIG. 13", "result": "no significant difference between rhCygb and NC groups"}, {"measurement": "pancreatic tissue morphology (H&E)", "setting": "[3]; acinar cell steatosis, islet morphology, inflammation, FIGS. 12A-12D", "result": "normal pancreatic islet morphology without significant inflammation"}, {"measurement": "HDL-C levels", "setting": "[4]; vs NC group, FIG. 10", "result": "numerically higher HDL-C levels on average compared to other groups"}, {"measurement": "total cholesterol levels", "setting": "[4]; subcutaneous rhCygb 5 mg/kg or exendin-4 50 μg/kg, FIG. 8", "result": "statistically significant reduction in total cholesterol levels compared to the placebo group"}, {"measurement": "LDL-C levels", "setting": "[4]; subcutaneous rhCygb 5 mg/kg or exendin-4 50 μg/kg, FIG. 11", "result": "statistically significant reduction in LDL-C levels compared to the placebo group"}, {"measurement": "triglyceride levels", "setting": "[4]; subcutaneous rhCygb 5 mg/kg, FIG. 9", "result": "statistically significant reduction in triglyceride levels compared to the placebo group"}, {"measurement": "blood glucose", "setting": "[5]", "result": "significantly reduced blood glucose after 6 weeks"}]}]}
